Results from publication PMC7674646, “Structural and Functional Analyses of the Transcription Repressor DgoR From Escherichia coli Reveal a Divalent Metal-Containing D-Galactonate Binding Pocket” (Frontiers in Microbiology, 2020).
Positions count from the first letter of the chain named.

How the values were obtained:
Assay in all cases: EMSA
Conditions in all cases: EMSA: 25 mM Tris-HCl pH 8.0, 50 mM KCl, 2.5 mM MgCl2, 5% glycerol, 1 mM DTT, 100 ug/mL salmon sperm DNA, 100 ng Cy5 probe in 20 ul, 25 C 20 min; native PAGE at …
[1] = biological target: T1, DgoR D146A D146A (Escherichia coli) (UniProt P31460)
T1 sequence: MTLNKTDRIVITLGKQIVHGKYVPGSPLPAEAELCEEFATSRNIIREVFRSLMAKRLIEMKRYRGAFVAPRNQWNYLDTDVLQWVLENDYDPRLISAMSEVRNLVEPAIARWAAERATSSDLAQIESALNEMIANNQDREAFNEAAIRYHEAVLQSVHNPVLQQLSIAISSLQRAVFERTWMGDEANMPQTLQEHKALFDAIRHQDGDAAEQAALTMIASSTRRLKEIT

[2] = biological target: T2, DgoR (EcoDgoR) WT (Escherichia coli) (UniProt P31460)
T2 sequence: T1 sequence with A146D

[3] = biological target: T3, DgoR R179A R179A (Escherichia coli) (UniProt P31460)
T3 sequence: T1 sequence with A146D, R179A

[4] = biological target: T4, DgoR T191A T191A (Escherichia coli) (UniProt P31460)
T4 sequence: T1 sequence with A146D, T191A

[5] = biological target: T5, DgoR R102A R102A (Escherichia coli) (UniProt P31460)
T5 sequence: T1 sequence with R102A, A146D

[6] = biological target: T6, DgoR S221A S221A (Escherichia coli) (UniProt P31460)
T6 sequence: T1 sequence with A146D, S221A

[7] = biological target: T7, DgoR W181A W181A (Escherichia coli) (UniProt P31460)
T7 sequence: T1 sequence with A146D, W181A

[8] = biological target: T8, DgoR D184A D184A (Escherichia coli) (UniProt P31460)
T8 sequence: T1 sequence with A146D, D184A

[9] = biological target: T9, DgoR H150A H150A (Escherichia coli) (UniProt P31460)
T9 sequence: T1 sequence with A146D, H150A

[10] = biological target: T10, DgoR Q173A Q173A (Escherichia coli) (UniProt P31460)
T10 sequence: T1 sequence with A146D, Q173A

[11] = biological target: T11, DgoR R224E R224E (Escherichia coli) (UniProt P31460)
T11 sequence: T1 sequence with A146D, R224E

[12] = biological target: T12, DgoR H195A H195A (Escherichia coli) (UniProt P31460)
T12 sequence: T1 sequence with A146D, H195A

[13] = biological target: T13, DgoR R224A R224A (Escherichia coli) (UniProt P31460)
T13 sequence: T1 sequence with A146D, R224A

Sequence: TGTAAAACGACGGCCAGTGCATTGTTCTTTTTGTGATCTAAATTGTAGTACAACAATATAAGTTTGTACTACATTACACGCACGGCAAACGCGAACGTCATCACGCTGGTACTACAAAGTTGCCGCGTTATGCATCGATCGGGGTAAAGTAGAGAAGAACATACAGAGCACAAGGACTCTCCATGACTCTCAATAAAACCGATCGCATTGTC (double strand) [dgo cis-acting element (promoter region)]
- binding [1]: binds
- binding [2]: binds
- binding [3]: binds
- binding [4]: binds more weakly
- binding [5]: binds more weakly
- binding [6]: binds
- binding [7]: binds
- binding [8]: binds more weakly
- binding [9]: binds more weakly
- binding [10]: binds more weakly
- binding [11]: binds more weakly
- binding [12]: binds more weakly
- binding [13]: binds more weakly
